Like-named read-outs stand apart in the source and are kept apart here. Each block holds one compound with its values, some of them ahead of it. Square brackets hold non-standard residues; d marks the D form. Peptide text beside a SMILES is read from it.
Experiments:
[1] = molecular target: T1, GRF receptor (adenylate cyclase activity in rat adenopituitary) (Rattus norvegicus, UniProt Q02644); assay: Adenylate cyclase assay on anterior pituitary homogenates (cAMP by HPLC); format: biochemical; settings: 50% of maximal cAMP accumulation induced by 1 μM hGRF(1-29)NH2
T1 construct: from tissue; host or cells: rat anterior pituitary homogenate
T1 sequence (Q02644 23-423 isoform Q02644-2 limits assumed): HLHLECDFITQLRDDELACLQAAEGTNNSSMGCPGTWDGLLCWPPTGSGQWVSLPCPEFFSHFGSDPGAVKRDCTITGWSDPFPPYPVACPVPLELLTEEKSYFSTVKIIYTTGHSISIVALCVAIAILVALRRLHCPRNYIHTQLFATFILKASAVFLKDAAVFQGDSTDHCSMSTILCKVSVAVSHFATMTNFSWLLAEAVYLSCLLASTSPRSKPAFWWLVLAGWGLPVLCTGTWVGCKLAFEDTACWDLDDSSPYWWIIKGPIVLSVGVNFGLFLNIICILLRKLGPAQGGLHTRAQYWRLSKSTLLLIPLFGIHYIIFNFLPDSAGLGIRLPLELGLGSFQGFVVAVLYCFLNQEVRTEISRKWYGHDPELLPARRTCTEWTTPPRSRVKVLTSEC
Method: The adenylate cyclase activity Nε-CF-[Lys^31 ]hGRF was performed on anterior pituitary homogenates as previously described (Lefrangois L. and Gaudreau P., J. Chromatogr., 1993, 619:116-120). Briefly, anterior pituitaries (pit.) were dissected out, rinsed and homogenized for 8 sec with a Micro Ultrasonic Cell Disrupter™, in ice-cold 20 mM Tris-HCl buffer (pH 7.5) containing 2 mM MgCl2 and 250 mM sucrose (1 pit./0.5 ml).
Samples of anterior pituitary homogenates (30-40 μg protein) were incubated in 1.5 ml Eppendorf™ tubes with 30 mM Tris-HCl, 5 mM MgCl2, 0.5 mM EGTA, containing 0.5 mM ATP, 1 mM IBMX, 10 μM GTP and an ATP regenerating system consisting of 2 mM creatine phosphate, 0.1 mg/ml creatine kinase and, 0.1 mg/ml myokinase in a final volume of 120 μl. Incubations were initiated by adding 20 μl of the homogenate to the reaction mixture which had previously been equilibrated at 37° C. for 2 min. The reactions were carried out for 8 min at 37° C. and stopped by heating the samples in boiling water for 4 min. Samples were centrifuged (12000 g, 5 min, 4° C.) and supernatants were filtered through 0.45 μm Millex HV4 ™ filters and transferred to autosampler vials for HPLC quantification of cAMP.

[2] = molecular target: T2, GRF receptors ([^125 I-Tyr^10 ]hGRF(1-44)NH2 binding sites in rat adenopituitary) (Rattus norvegicus, UniProt Q02644); assay: Competitive binding assay with [^125 I-Tyr^10 ]hGRF(1-44)NH2 on anterior pituitary homogenates
T2 construct: from tissue; host or cells: rat anterior pituitary homogenate
T2 sequence (Q02644 23-423 isoform Q02644-2 limits assumed): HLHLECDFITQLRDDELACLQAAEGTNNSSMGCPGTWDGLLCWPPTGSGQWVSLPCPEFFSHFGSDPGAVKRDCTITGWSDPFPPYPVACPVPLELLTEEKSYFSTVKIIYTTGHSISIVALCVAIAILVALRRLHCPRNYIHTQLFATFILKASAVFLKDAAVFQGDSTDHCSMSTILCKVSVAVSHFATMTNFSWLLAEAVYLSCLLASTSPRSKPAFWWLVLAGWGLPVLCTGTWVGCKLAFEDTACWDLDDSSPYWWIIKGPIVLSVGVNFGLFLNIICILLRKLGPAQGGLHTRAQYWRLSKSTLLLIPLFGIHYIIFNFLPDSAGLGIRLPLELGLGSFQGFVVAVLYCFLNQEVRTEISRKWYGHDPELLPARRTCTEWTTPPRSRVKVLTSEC
Procedure, shortened: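 Rat anterior pituitary homogenates (70 to 75 μg protein) in 50 mM Tris-HCl pH 7.4 with 5 mM EDTA, 5 mM MgCl2, 0.42% BSA were competed with 35-50 pM radioligand against analogues at 0-1000 nM. Non-specific binding defined with 2.4 μM rGRF(1-29)NH2; 60 min at 23° C, stopped by centrifugation, pellet gamma-counted. hGRF(1-29)NH2 run in each experiment as reference.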

[3] = molecular target: T3, GRF receptor of rat adenopituitary (rat, UniProt Q02644-2); assay: displacement of 125I-Tyr10 hGRF(1-44)NH2 from rat anterior pituitary homogenate
T3 sequence: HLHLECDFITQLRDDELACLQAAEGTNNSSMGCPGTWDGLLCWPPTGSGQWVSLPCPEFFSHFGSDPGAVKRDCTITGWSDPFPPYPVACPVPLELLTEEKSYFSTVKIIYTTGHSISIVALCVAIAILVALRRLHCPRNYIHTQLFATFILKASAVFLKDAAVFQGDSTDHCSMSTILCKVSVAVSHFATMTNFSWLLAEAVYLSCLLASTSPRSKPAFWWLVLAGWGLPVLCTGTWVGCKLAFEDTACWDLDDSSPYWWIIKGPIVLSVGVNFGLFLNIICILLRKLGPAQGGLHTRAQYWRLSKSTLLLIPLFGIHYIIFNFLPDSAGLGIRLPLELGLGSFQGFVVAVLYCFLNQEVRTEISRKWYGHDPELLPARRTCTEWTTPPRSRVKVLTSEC

[4] = molecular target: T3, GRF receptor of rat adenopituitary
[5] = molecular target: T3, GRF receptor of rat adenopituitary; remark: listed apart in the source
[6] = Table 12, mean±SD of 2 or mean±SE of 3 to 6 experiments, 10 for hGRF(1-29)NH2
[7] = Table 11, mean±SD of 2 or mean±SE of 3 experiments for analogues, mean±SE of 11 for hGRF(1-29)NH2

Compound: CC[C@H](C)[C@H](NC(=O)[C@H](C)NC(=O)[C@H](CC(=O)O)NC(=O)[C@H](C)NC(=O)[C@@H](N)Cc1ccc(O)cc1)C(=O)N[C@@H](Cc1ccccc1)C(=O)N[C@H](C(=O)N[C@@H](CC(N)=O)C(=O)N[C@@H](CO)C(=O)N[C@@H](Cc1ccc(O)cc1)C(=O)N[C@@H](CCCNC(=N)N)C(=O)N[C@@H](CCCCN)C(=O)N[C@H](C(=O)N[C@@H](CC(C)C)C(=O)NCC(=O)N[C@@H](CCC(N)=O)C(=O)N[C@@H](CC(C)C)C(=O)N[C@@H](CO)C(=O)N[C@@H](C)C(=O)N[C@@H](CCCNC(=N)N)C(=O)N[C@@H](CCCCN)C(=O)N[C@@H](CC(C)C)C(=O)N[C@@H](CC(C)C)C(=O)N[C@@H](CCC(N)=O)C(=O)N[C@@H](CC(=O)O)C(=O)N[C@H](C(=O)N[C@@H](CCSC)C(=O)N[C@@H](CO)C(=O)N[C@@H](CCCNC(=N)N)C(N)=O)[C@@H](C)CC)C(C)C)[C@@H](C)O [hGRF(1-29)NH2, reference compound]
IC50 ([1]; Table 5, mean±SD of 2 experiments (analogue), mean±SE of 10 (hGRF(1-29)NH2)): 36.7 ± 5.5 nM
IC50 ([2]; Table 4, mean±SD of 2 experiments in triplicate for analogues, mean±SE of 29 experiments for hGRF(1-29)NH2): 2.67 ± 0.12 nM

Compound: Nε-5-carboxyfluoresceinyl-Lys^31 !hGRF(1-44)NH2 (from UniProt P01286) (peptide)
IC50 [3]: 3.65 nM
Relative affinity (%) against hGRF(1-29)NH2 [3]: 73%
adenylate cyclase activity: EC50 of cAMP accumulation (column head prints IC50) [4]: 67 nM
adenylate cyclase activity: Relative activity (%) against hGRF(1-29)NH2 [4]: 55%

Compound: D-Ala^2,D-Tyr^10,D-Ala^15 ! hGRF(1-29)NH2 (from UniProt P01286) (peptide)
Relative affinity (%) against hGRF(1-29)NH2 [3]: 18%
adenylate cyclase activity: Relative activity (%) against hGRF(1-29)NH2 [5]: 21%

Compound: CC[C@H](C)[C@H](NC(=O)[C@H](C)NC(=O)[C@H](CC(=O)O)NC(=O)[C@@H](C)NC(=O)[C@@H](N)Cc1ccc(O)cc1)C(=O)N[C@@H](Cc1ccccc1)C(=O)N[C@H](C(=O)N[C@@H](CC(N)=O)C(=O)N[C@@H](CO)C(=O)N[C@H](Cc1ccc(O)cc1)C(=O)N[C@@H](CCCNC(=N)N)C(=O)N[C@@H](CCCCN)C(=O)N[C@H](C(=O)N[C@@H](CC(C)C)C(=O)N[C@H](C)C(=O)N[C@@H](CCC(N)=O)C(=O)N[C@@H](CC(C)C)C(=O)N[C@@H](CO)C(=O)N[C@@H](C)C(=O)N[C@@H](CCCNC(=N)N)C(=O)N[C@@H](CCCCN)C(=O)N[C@@H](CC(C)C)C(=O)N[C@@H](CC(C)C)C(=O)N[C@@H](CCC(N)=O)C(=O)N[C@@H](CC(=O)O)C(=O)N[C@H](C(=O)N[C@@H](CCSC)C(=O)N[C@@H](CO)C(=O)N[C@@H](CCCNC(=N)N)C(N)=O)[C@@H](C)CC)C(C)C)[C@@H](C)O [D-Ala^2, D-Tyr^10, D-Ala^15] (H-Y[dA]DAIFTNS[dY]RKVL[dA]QLSARKLLQDIMSR-NH2)
IC50 [1, 6]: 176 ± 87 nM
IC50 [2, 7]: 13.1 ± 0.9 nM

More lines, now with the values ahead:

IC50 [1, 6]: 67 ± 24 nM
IC50 [2, 7]: 4.9 ± 3.25 nM
Compound: CC[C@H](C)[C@H](NC(=O)[C@H](C)NC(=O)[C@H](CC(=O)O)NC(=O)[C@H](C)NC(=O)[C@@H](N)Cc1ccc(O)cc1)C(=O)N[C@@H](Cc1ccccc1)C(=O)N[C@H](C(=O)N[C@H](CC(N)=O)C(=O)N[C@@H](CO)C(=O)N[C@@H](Cc1ccc(O)cc1)C(=O)N[C@@H](CCCNC(=N)N)C(=O)N[C@@H](CCCCN)C(=O)N[C@H](C(=O)N[C@@H](CC(C)C)C(=O)NCC(=O)N[C@@H](CCC(N)=O)C(=O)N[C@@H](CC(C)C)C(=O)N[C@@H](CO)C(=O)N[C@@H](C)C(=O)N[C@@H](CCCNC(=N)N)C(=O)N[C@@H](CCCCN)C(=O)N[C@H](CC(C)C)C(=O)N[C@@H](CC(C)C)C(=O)N[C@@H](CCC(N)=O)C(=O)N[C@@H](CC(=O)O)C(=O)N[C@H](C(=O)N[C@@H](CCSC)C(=O)N[C@@H](CO)C(=O)N[C@@H](CCCNC(=N)N)C(N)=O)[C@@H](C)CC)C(C)C)[C@@H](C)O [D-Ans^8, D-Leu^22]

Relative affinity (%) against hGRF(1-29)NH2 [3]: 960%
adenylate cyclase activity: Relative activity (%) against hGRF(1-29)NH2 [5]: 1410%
Compound: Ala^8,Ala^15,Ala^22 ! hGRF(1-29)NH2 (from UniProt P01286) (peptide)

Relative affinity (%) against hGRF(1-29)NH2 [3]: 8%
adenylate cyclase activity: Relative activity (%) against hGRF(1-29)NH2 [5]: 27%
Compound: D-Ala^2,D-Tyr^10,D-Ala^15,D-Lys^21 ! hGRF(1-29)NH2 (from UniProt P01286) (peptide)

From patent US5854216A, “Marker for growth hormone-releasing factor receptors” (Universite de Montreal, priority 1996, dated 1998)
